Experimental data taken from PMC3143262 (Journal of molecular biology, 2011).
Changes are numbered by the printed parent chain. Names may count otherwise.

B1: CD147 Ig0 wild-type (domain or fragment, human, UniProt P35613 22-138, looked up)
chain: AAGFVQAPLSQQRWVGGSVELHCEAVGSPVPEIQWWFEGQGPNDTCSQLWDGARLDRVHIHATYHQHAASTISIDTLVEEDTGTYECRASNDPDRNHLTRAPRVKWVRAQAVVLVLE
B2: CD147 Ig0 K126A (domain or fragment, human, UniProt P35613 22-138, looked up)
chain: B1 chain with K105A
B3: CD147 Ig0 C67M (domain or fragment, human, UniProt P35613 22-138, looked up)
chain: B1 chain with C46M
modifications: Selenomethionine labeled for the crystal structure

Biological target: the molecule itself
Test: SEC

Protein	stoichiometry N
B1	2
B2	2
B3	2
